Target: T1, extracellular portion of CD98 (212-630 of CD98hc)
T1 chain: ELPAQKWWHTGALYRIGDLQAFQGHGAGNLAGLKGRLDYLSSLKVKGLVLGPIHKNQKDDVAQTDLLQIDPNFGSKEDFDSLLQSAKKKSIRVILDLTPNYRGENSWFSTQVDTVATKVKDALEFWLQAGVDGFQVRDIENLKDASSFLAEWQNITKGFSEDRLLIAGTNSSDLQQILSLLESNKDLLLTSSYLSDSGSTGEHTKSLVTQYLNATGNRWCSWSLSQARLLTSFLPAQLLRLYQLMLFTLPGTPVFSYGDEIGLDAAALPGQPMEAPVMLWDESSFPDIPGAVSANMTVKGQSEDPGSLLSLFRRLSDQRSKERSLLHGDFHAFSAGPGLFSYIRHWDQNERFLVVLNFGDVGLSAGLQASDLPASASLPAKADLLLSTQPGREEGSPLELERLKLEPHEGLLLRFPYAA
Assay: SPR
Details: chain shown with the change;; parent: est. 24; read off a plot

B1: domain 1 of CD147, P35613-2 K63A (protein)
chain: AAGTVFTTVEDLGSKILLTCSLNDSATEVTGHRWLKGGVVLAEDALPGQKTEFKVDSDDQWGEYSCVFLPEPMGTANIQLHGPPRVKAVKSSEHINEGETAMLVCKSESVPPVTDWAWYKITDSEDKALMNGSESRFFVSSSQGRSELHIENLNMEADPGQYRCNGTSSKGSDQAIITLRVRSH
  response: 3.5 RU

— PMC8632965
